{"source": "the NTF2 design screens of Basanta et al. (2020)", "data": [{"assay": "protease stability score; higher = more stable; yeast display proteolysis, trypsin and chymotrypsin;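 also: relative to predicted unfolded state with 0 unfolded-like and 1 meaning tenfold more protease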", "values": [{"sequence": "SEHTHAAVRIMELESEYLTTGDWESVRRLLDPHVQVEIGDFHAHGWEERVRRMREIRVKVQDLRIRTIDFYNGRVELHFELHVRIEFNGRDVRQDTEIVLIVLKVNGKWLVDKIRFE", "protease stability score": 0.901}, {"sequence": "DENEELLTDMIRLLKNVLETGDEEHFHRLADPHVRFKIGDKIFHGREEATRIFSEVMERFKNVRLRLEHIEIIGDKITIHTRIDVGDKSYEMHIHARKVNGKWIMETLFIR", "protease stability score": 1.17}, {"sequence": "HEDERLMKEALEMIIESFRTGDEHTIEELADPHARVIVGDKHHHGWHELLKRVLELGVKHVNVRDMRVIGDKLEVKLELHVGDKTFDSRLHVLKVNGKWHIQFVEIH", "protease stability score": 1.75}, {"sequence": "SEEEKTVKELVRLILHLLSTGDEEKWLHLADPNMRIEIDFNGKHVELHGREHVHWLLKQFKNARIEIELKHVHVYDGVAEITSILHYHQGDFHWHTESEVMVVVVDGRIKEISFRIR", "protease stability score": 2.24}, {"sequence": "DEEKERSDRLYERFFTAIFTGDEDLIRKLLDPDTRYQIGDKSSHGRDDIYDRIREMRNKVPNLRWDIRHVRIQGEKVHLDVEFNVNGKRDEFHIELDIVNGRLRHIRIEPV", "protease stability score": 1.24}, {"sequence": "SEEHEHIRRVWEEIRRVLETGDEEALMRMIDPNVRIRNVQGDKELDIHGRESVVRRILKIFQEIWFDFEDRHIDIQGDKLHIEGHLILRVNGREHRLDVREVWVVVNGVIHTVEFMVE", "protease stability score": 1.29}, {"sequence": "EEDLEHILELSEYFIRAWSTGDWDTIHKYADPHVRSDINGVESHGMEEMIRVYEEIRVTIEHVHYDHVTVQGEKLIVDGRMDYRVDINGKKKEHRTRVEIHVDVVNGRIKSFVINYR", "protease stability score": 1.23}, {"sequence": "SHDEEQVDRFLKLWSHAVMTGDWKFMYELLDPHTRLVINGKNVHGREEISKFFHDHVSRIKNLKIEVHLNEVRIFDGRAHLDIEVRIHIGDKNHTIHVEIVVEKVDGRWHVHSIHEK", "protease stability score": 1.36}, {"sequence": "DEDEESLRRMTTLLLYLWLTGDFEEMQKLADPRVKLDAENRNVHGREEWYEFMKRLGVKHSEVHHLRVINGRIDVETRVDVDGQEVRIRFIIDKVDGRWFLRRVYVH", "protease stability score": 1.85}, {"sequence": "DEEKRRASELIIHLWHNFLTGNEDRFRELFDPNVKAKLDVGDKSVDHIGRDHVLDWLRLVRHEIRIHHYEHKRERVYGDKWESDGHVDGEFNGRRTETHFEIILVIIDGKLHFLILNFH", "protease stability score": -0.076}, {"sequence": "DEDQKFAMEVLELLVRAKVTGNEELLEKLLDPHTRVDINGREIHGWEEMLRILHEWRIRDLEFRVRDIHIIDGRLKIDGEERVEGEIDGRNMEIKYRTEVYYEKINGRWIVREMSVR", "protease stability score": 1.75}, {"sequence": "SEDHEAFDSMIQSWLDVYLTGDEDIMLELFDPRMRVDINGKDIHGMHHYTDLLHKVRRERGFEEHLRIEDSKVINGKAEFHTHVHIRQGDKNMEFEVTIVVLKINGKWWIKHIEIT", "protease stability score": 0.922}, {"sequence": "SEDEEIHRKMFEDILHALRTGDWRELKHNLDPNVRLEVDGREIHGWEEVVKFLHEARVEHIEMRIRHVEFQGEKIISHRHMIFHKDVNGVRVDQRHDFTTIILKVNGRWRYHSIKID", "protease stability score": 1.36}, {"sequence": "SEIDREAEELVHLLAEFVETGNEERWLELLDPHVRLDFDGVISHGREHYIEFWRRLKENLGIDKVSFRVRRRKTQGEKAHSDMETDINGQKYHMEVLVVVINGVVKHSEFHYN", "protease stability score": 1.07}, {"sequence": "DEHTEEAKHWVTRFIHALSTGDFEQIERLADPHVRVEIGDKEIHGMEFLSEHVLKFKGIRTNIRHIEIHYYDGRVNVEVDIDIHIGDKTVNSELHIHIEKVDGRWVITSLHIRTR", "protease stability score": 1.46}, {"sequence": "DEDHEHLERHTRLFLERWRTGDEETLLKLFDPHARSEYGDKHHVGREEVTKLMVIILEKVKGLTIRRLRIKHIEYVDGRAHMDMEVTSEIDGQEVIESVHILMTKVDGRWRIQRVILV", "protease stability score": 0.927}, {"sequence": "SEHDRLAHEWMRVFLHSIWTGDEDTILKMIDPHMRLDIDGVTFHGRDDVREWFHHHRERVDHIKDVDIKDVRIFDGKAETDRIVHVQVDGKEVDEEVLVILIVIDGRVTSIIIEKR", "protease stability score": 1.12}, {"sequence": "SEDEEEKHKFAEIFWHAHLTGDFDTLKRLVDPNVRIRIGDKDLHGREHLLEELRKIKNLTIEERHVDIQGEWMRMEVVHYVNGVHIDTTIHIDVVNGRIRRIVFNIV", "protease stability score": 2.47}, {"sequence": "SEYERDFRYAFNIYARDVLTGDEESLRRLLDPNMRIDVNGVHIHGREHLLQIWHEIRIHHFEIDLKHIEVQGNKIHVHGETHIDGEINGQRDEFKIRDSLLVLKVNGKWIFKRFIVD", "protease stability score": 0.951}, {"sequence": "DEDREEAIKTVEETVELIATGDFEKFEELVDPNVRIDVNGVDVIGREDWRRRVEEIRISMRDSDIKRVRSVNGVMHVDGRIELEVHVNGKTKNVNLRTHWYIVKINGRWLIHSVHFV", "protease stability score": 1.99}, {"sequence": "DEDTELLKHHLDIFRDAVRTGDEEKERKYADPDDRINVDGVIFHGWEESKRFYEHWRVKDFHVHDMKVQGDKADVESRLVVQINGREVIFRVKLIITKVNGRWKHTMLEIK", "protease stability score": 1.62}, {"sequence": "DDREKFWKELAKEWFKSLITGDEDSLRKLLDPDVRTIVGDWHIHGMEEVLKFWLELRISDHDSKRIIVINGVNLNDIRSNGNVNGVERETRVELIIEVVDGRVRRVEFRMK", "protease stability score": 2.01}, {"sequence": "SEMEKLYRDLYKRFLDNWVTGDEEKLIKYADPNTRLHVGDKHHHGMEHISHLFLEFVYRADHHEYRIDRLEVVDGVAISDGRMREEIGEFELRFDVEIRIVIVNGRLKWIEVSFK", "protease stability score": 0.839}, {"sequence": "DEDKHVVEEFEKLMSHSMATGDEESLLRLADPNTRIVIGDKELHGMDLYLRWHVQHWRELGVDRVKVEVRVRDVRVVDGKVHVIGELIFRFDGRTQSHDVELEIVKINGKWVLKQINLK", "protease stability score": 2.25}, {"sequence": "TEEKEEIDHAFELIWKAIDTGDEKFMTEQADPHTLTILVVDGQEIRLHGMEEFVRTFRELGIKHVRLEDIRIQGNKVEIHIRTNFNGRESEMRVHMEKVDGRWVLRSHRVIFK", "protease stability score": 1.36}, {"sequence": "DEDRESARWLFEIHSRVFETGDEDSLHRLFDPNARFDINGREVHGMDLWIHLLKHIRVSVKDMKIRRHKSVNGRLETDYDSTLSFHVGDKTIELEVRVILVSHKVNGRWEIKEEIVH", "protease stability score": 1.24}, {"sequence": "DEIKKVALKMADLIFELYLTGNEELLRKLADPHMKLIIDGREFHGMHVSHEWILRELKEIRIEDWKIKDVHLQGNKVHIDLRVHGVVDGQREERDVKIHIIVINGRIHSMEMHKE", "protease stability score": 2}, {"sequence": "DEDHKEVKHILRMWMENLYTGDEELNNRLLDPNARWEVNGRDIHGRELILKVLSNEYTEWRMKHIKIDHVENVNGQVHVDITIKYDINGQEINLRTHIRIYIINGKIHEIHISIH", "protease stability score": 0.576}, {"sequence": "DEWDNAREELKRMLFKLLETGDEDSFKRLIDPDARQHIDGQEIHGRERVYEIFYRIKNMTVHHIEDKHYEIVNGQIHSDVRIDMIVNGKRITLNIRVVMIKIDGKWYLHSEKIS", "protease stability score": 1.6}, {"sequence": "DEVERWAKEIAELFLKLYLTGNWKNLERLLDPHMQFIIDGVRIHGREEMREFIRHEREFFKGMRHEITDSHVDVQGEKVEVHLHIEVIVNGQKHVRHINLHIEKIDGQWLIKLVIIHHE", "protease stability score": 1.26}, {"sequence": "DEMDHWVMEMFEHLLKLFLTGDEEKWERLADPNVKTRFIINGKDVRLHGREHFKKLVDELRITSVDLRDIRAVGNKAEVEGRVEGEFDGQTHILDMRVRFEIINGKLKKEEYVIR", "protease stability score": 1.27}, {"sequence": "SDEERDFTRLIRILRDALRTGDEHKLHELLDPHTRIIFDGQHHIGWERILEWADQIDHVHFRMTLHTVDIQGDKLRADLSLDVKIQVDGRTEHRHNVMHITVQKVNGRWRIQELYYK", "protease stability score": 1.27}, {"sequence": "DELNEITHKFMHEFLRAELTGDWEELHRMLDPHARYIAHIDGREIHFIGRERVLKFMEEWLRRVKNVRIQINDHRVQGDYNHIDGKLKINGKTHDVHIELVMVDGRNHEIHVFIH", "protease stability score": 1.61}, {"sequence": "SEEEHHDRLMTDFFIEIMRTGDEKEFIDLFDPHDRTHIDGVDAHGREIAVELLHLFLRKLGFDHIRVTDVHVYNGKVELHMRSDQGDKHVEVQIHSVVYNGKLQHLHVKIRTL", "protease stability score": 1.63}, {"sequence": "DEDEKASKEFMRLVMEVLKTGDWKSLVDLADPHARLHINGREIHGREKISEILLHELDLLGFKHMEVRVHHVEVQGEKMKFDVRHSLDVNGVERHETSMIISVKFDGQWWLKEEIVK", "protease stability score": -0.07}, {"sequence": "DEHHEILDHFLHLWIEALHTGDWKLIEKLIDPHAKLRIHQGDKHIEIHGREEVVRREEEWLRRIKNLRLHIDRIEIQGNKFHMEITLHFDGVTVDSRVILFVYDGQIKHIEIRHN", "protease stability score": 2.43}, {"sequence": "SEEKHMYKKLIEEWLKSVITGDEEHIQHLVDPDVRMTIIFENHELRAVGWEEVVRVLKEIRIKHFELRRWDDVNGRVHLDGQMTIQFNGQEHQTSTHIEIMFINGRVKEIRLIIT", "protease stability score": 0.986}, {"sequence": "DEKTEIVSRIMIVFFHALLTGDWETLKKNADPHVKLEAEGRKSHGMEELVRWIHEEIKRIPGIRFELKRYDVQGDKVEIEGRVRINGVEFELIIESVIVDGKLKSIREEWR", "protease stability score": 1.41}, {"sequence": "HENEHRMKEFVREVFDLRRTGNWEQLQELFDPNVRIEIGDKRYHGWENLSHFLLHARQDMHIEVTSVEVQGDKIIADGRLEYTLRVGDKDVTYDHRTIIIAHKFNGKWFFTTERIK", "protease stability score": 1.33}, {"sequence": "SDIEEMYRINLEIFEHSQQTGDWRMISHMADPNVRISVGDKEIHGRELFEKHLRDTVEKLGAEVHWELNHVRIQGDKLLVRGHLRIKYGDKHETFDIELYADKVDGKWLIHEIRVD", "protease stability score": 1.44}, {"sequence": "DEHHEVAHRISTMLTHILMTGNEEWLSHLADPRVRSEIGDFEIHGREHMEELLHRILNKLGADHLRIHHIEIRIQGDFLIVKVHGRTHIGDKTVTHEIIFIIIKINGRWHLHSIWFDFE", "protease stability score": 1}, {"sequence": "SEDHEAAHDMLELLRHMELTGDENSLMDLLDPNAKNDVDGKVSVGREEWLRMVHFLLTRFDHIKSIEVEESRHIDGRLNYQTRLRGTVNGQDVELRTEWIVIKVNGKWFLHKVRFV", "protease stability score": 1.24}, {"sequence": "SEEERLIIEVMKDFEHSHRTGDWRRILKNLDPNTRHEFNGVEFHGMEEVVRFWIELKDEIRIHHIEIESINHVGDKAHMNVRRDTEVNGKREDVRVQVDLRVINGRIKSVIIRIE", "protease stability score": 0.844}, {"sequence": "DHEEKAKKFFDDLLRAVKHNDETQLERLFDKNVRFNVGEHNFRGREEFVKMVRTMVEQVDHVTATIVSIETNGDKVNLVAQWDMSHNGNSKRIRVLVVLDDNNGRVVAREMSEK", "protease stability score": 1.98}, {"sequence": "DEEEELLRRLIKMLLHLMRTGDEDETANLLDPNVRIEWNGRTFHGREEAKRWLFELLSRVDVVKDIKIHDYDRYGDFVLLDVRLHGEIDGVPTETIFIIIIRKINGRWMIHQIYLE", "protease stability score": 1.42}, {"sequence": "DHREELLHRIYELWEMVQTTGDFEKLTDLLDPDVYVNINGRNLIGRELRIRFMREIRMEIKHYKHERFHFQGDKAHIHGRLDREINIGDKHHREDITIDVHLFVIDGVIRSFEIRLI", "protease stability score": 1.33}, {"sequence": "TDEDRELHEAAELLIESTWTGDFDFLLELLDPNVRLVINGKHDHGREDIWEVLRRLLERLGLDRVRVKIKHIDSFDGRLHLNINLNFNGRQFRYHYESYKVNGQWVVRRIEVREK", "protease stability score": 1.89}, {"sequence": "HEEEKHLKEMIERLYHYQLTGNWEELHRLADPHAKWHINGQDIHGMHIAVELILKEVRRIDHVDSDSKRIDMQGDKMRSNVHEIIEVGDKSIRRDSILILVIIDGRIREVSIIIL", "protease stability score": 1.1}, {"sequence": "SEKEHIMRRASQLIRDYLITGDWRSLEKLIDPNAQFEVNGRHIHGREEVSRIYLQHLNELGVERIDYIERDSDMQGEKVHTYGDLHVNGVTFHVIIFVLKIDGRWTIKKEIWSDK", "protease stability score": 1.15}, {"sequence": "SEEREDIREIIEILLHHIHTGDWREVTNLMDPNALLVYGDKIFIGREEFHKVIKRHSEEWRIHHVELKDIEVQGNKAHVDGRLDGEIDGRRVTLTTEIIAVKINGRWHVHEIVLK", "protease stability score": 1.23}]}]}
